Numbering of substitutions follows the chain as printed. Like-named read-outs stand apart in the source and are kept apart here.
B1: Positive control bispecific antibody OKT3-3C6 (bispecific antibody, human IgG1, lambda)
heavy: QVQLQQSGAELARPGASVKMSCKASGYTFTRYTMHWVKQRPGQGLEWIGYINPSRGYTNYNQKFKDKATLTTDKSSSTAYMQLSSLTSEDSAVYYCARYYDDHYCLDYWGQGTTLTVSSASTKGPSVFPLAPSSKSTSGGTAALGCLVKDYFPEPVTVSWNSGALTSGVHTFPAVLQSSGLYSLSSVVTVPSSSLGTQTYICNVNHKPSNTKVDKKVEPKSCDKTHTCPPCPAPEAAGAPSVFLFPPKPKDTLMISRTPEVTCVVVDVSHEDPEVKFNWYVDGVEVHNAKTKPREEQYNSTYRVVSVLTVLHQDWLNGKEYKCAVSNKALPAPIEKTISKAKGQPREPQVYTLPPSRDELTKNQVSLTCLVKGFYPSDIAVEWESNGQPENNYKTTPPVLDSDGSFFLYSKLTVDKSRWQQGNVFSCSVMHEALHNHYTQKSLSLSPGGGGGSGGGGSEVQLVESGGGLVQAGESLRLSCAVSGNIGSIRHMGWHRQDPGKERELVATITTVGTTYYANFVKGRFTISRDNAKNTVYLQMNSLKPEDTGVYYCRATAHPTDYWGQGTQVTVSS
light: QIVLTQSPAIMSASPGEKVTMTCSASSSVSYMNWYQQKSGTSPKRWIYDTSKLASGVPAHFRGSGSGTSYSLTISGMEAEDAATYYCQQWSSNPFTFGSGTKLEIGQPKAAPSVTLFPPSSEELQANKATLVCLISDFYPGAVTVAWKADSSPVKAGVETTTPSKQSNNKYAASSYLSLTPEQWKSHRSYSCQVTHEGSTVEKTVAPTECS
B2: Control antibody 1-3C6 (bispecific antibody, human IgG1, lambda)
heavy: not shown
light: QAVVTQESALTTSPGETVTLTCRSSTGAVTTSNYANWVQEKPDHLFTGLIGGTNKRAPGVPARFSGSLIGDKAALTITGAQTEDEAIYFCALWYSNLWVFGGGTKLTVLGQPKAAPSVTLFPPSSEELQANKATLVCLISDFYPGAVTVAWKADSSPVKAGVETTTPSKQSNNKYAASSYLSLTPEQWKSHRSYSCQVTHEGSTVEKTVAPTECS
B3: CD3 monoclonal antibody M36 (antibody, human IgG1, lambda, V domains shown)
VH: EVQLVESGGGLVQPGGSLRLSCAASGFTFNTYAMNWVRQAPGKGLEWVARIRSKYNNYATYYADSVKDRFTISRDDSKSSLYLQMNSLKTEDTAMYYCVRHSNFPNSYVSWFAYWGQGTLVTVSS
VL: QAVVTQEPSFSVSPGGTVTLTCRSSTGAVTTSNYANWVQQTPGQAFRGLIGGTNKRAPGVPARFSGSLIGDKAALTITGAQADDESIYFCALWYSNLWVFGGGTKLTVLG
notes: IgG: VH36 + IgG1 mutant CH, VL-1 + CL
B4: CD3 monoclonal antibody M40 (antibody, human IgG1, lambda, V domains shown)
VH: B3 VH with S87N, H101A, S102G, P105G, A113Q
VL: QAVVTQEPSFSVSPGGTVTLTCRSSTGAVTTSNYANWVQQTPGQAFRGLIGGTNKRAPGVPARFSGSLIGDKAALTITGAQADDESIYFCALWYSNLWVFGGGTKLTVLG
notes: IgG: VH40 + IgG1 mutant CH, VL-1 + CL
B5: CD3 monoclonal antibody M41 (antibody, human IgG1, lambda, V domains shown)
VH: B3 VH with D68G, S87N, P105Q
VL: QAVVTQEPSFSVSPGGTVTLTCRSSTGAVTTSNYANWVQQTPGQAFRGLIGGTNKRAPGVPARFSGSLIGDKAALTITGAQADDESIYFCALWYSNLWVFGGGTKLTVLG
notes: IgG: VH41 + IgG1 mutant CH, VL-1 + CL
B6: CD3 monoclonal antibody M44 (antibody, human IgG1, lambda, V domains shown)
VH: B3 VH with S87N, S102G, P105Q, V109I
VL: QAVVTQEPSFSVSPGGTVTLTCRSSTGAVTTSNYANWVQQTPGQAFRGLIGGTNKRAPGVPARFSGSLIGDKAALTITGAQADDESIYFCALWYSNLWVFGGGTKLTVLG
notes: IgG: VH44 + IgG1 mutant CH, VL-1 + CL
B7: CD3 monoclonal antibody M38 (antibody, human IgG1, lambda, V domains shown)
VH: B3 VH with S87N, M95V, S102G, P105L, A113Q
VL: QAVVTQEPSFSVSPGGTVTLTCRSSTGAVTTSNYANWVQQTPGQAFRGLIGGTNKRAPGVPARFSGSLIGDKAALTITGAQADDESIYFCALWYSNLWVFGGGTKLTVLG
notes: IgG: VH38 + IgG1 mutant CH, VL-1 + CL
B8: CD3 monoclonal antibody M46 (antibody, human IgG1, lambda, V domains shown)
VH: B3 VH with S80I, S102A, P105G, Y114S
VL: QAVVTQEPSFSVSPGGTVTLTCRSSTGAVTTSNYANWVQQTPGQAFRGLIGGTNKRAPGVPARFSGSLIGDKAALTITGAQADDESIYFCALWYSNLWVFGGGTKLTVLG
notes: IgG: VH46 + IgG1 mutant CH, VL-1 + CL
B9: CD3 monoclonal antibody M45 (antibody, human IgG1, lambda, V domains shown)
VH: B3 VH with S87N, P105G, A113Q
VL: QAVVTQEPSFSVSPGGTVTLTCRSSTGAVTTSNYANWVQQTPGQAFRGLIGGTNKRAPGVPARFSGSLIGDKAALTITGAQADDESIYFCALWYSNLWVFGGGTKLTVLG
notes: IgG: VH45 + IgG1 mutant CH, VL-1 + CL
B10: CD3 monoclonal antibody M43 (antibody, human IgG1, lambda, V domains shown)
VH: B3 VH with S80I, H101P, S102G, Y114L
VL: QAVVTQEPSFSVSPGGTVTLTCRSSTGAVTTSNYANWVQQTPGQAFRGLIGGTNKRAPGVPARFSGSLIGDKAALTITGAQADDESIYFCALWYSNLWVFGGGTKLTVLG
notes: IgG: VH43 + IgG1 mutant CH, VL-1 + CL
B11: CD3 monoclonal antibody M37 (antibody, human IgG1, lambda, V domains shown)
VH: B3 VH with S80I, S87N, S102A, P105S
VL: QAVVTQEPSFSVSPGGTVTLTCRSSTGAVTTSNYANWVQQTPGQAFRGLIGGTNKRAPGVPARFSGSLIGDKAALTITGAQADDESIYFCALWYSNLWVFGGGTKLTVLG
notes: IgG: VH37 + IgG1 mutant CH, VL-1 + CL
B12: CD3 monoclonal antibody M39 (antibody, human IgG1, lambda, V domains shown)
VH: B3 VH with S87N, S102Q, P105G, A113Q
VL: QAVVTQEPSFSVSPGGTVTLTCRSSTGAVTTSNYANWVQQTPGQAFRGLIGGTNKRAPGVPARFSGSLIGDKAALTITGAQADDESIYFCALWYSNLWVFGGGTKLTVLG
notes: IgG: VH39 + IgG1 mutant CH, VL-1 + CL
B13: CD3 monoclonal antibody M42 (antibody, human IgG1, lambda, V domains shown)
VH: B3 VH with D68G, S87N, S102G, P105Q, A113Q
VL: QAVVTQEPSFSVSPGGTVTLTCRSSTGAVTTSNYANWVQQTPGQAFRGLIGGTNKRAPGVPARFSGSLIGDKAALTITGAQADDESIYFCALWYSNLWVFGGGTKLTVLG
notes: IgG: VH42 + IgG1 mutant CH, VL-1 + CL
B14: MSLN single-domain antibody 3C6 (VHH)
VHH: EVQLVESGGGLVQAGESLRLSCAVSGNIGSIRHMGWHRQDPGKERELVATITTVGTTYYANFVKGRFTISRDNAKNTVYLQMNSLKPEDTGVYYCRATAHPTDYWGQGTQVTVSS
notes: also called MSLN VHH

Tests used:
[1] = biological target: T1, Human CD3 on Jurkat cells (human, UniProt P07766 23-207; P09693 23-182; P04234 22-171); experiment: flow cytometry on Jurkat cells
T1 construct: whole, on cells; also called Human CD3-expressing Jurkat cells; Jurkat (naturally expressing human CD3)

[2] = biological target: T2, Monkey CD3 on cynomolgus HSC-F cells (cynomolgus monkey, UniProt Q95LI5 22-198; Q95LI7 23-181; Q95LI8 22-171); experiment: flow cytometry on HSC-F cells
T2 construct: whole, on cells; also called Monkey CD3-expressing cynomolgus HSC-F cells; cynomolgus monkey CD3-expressing HSC-F cells

[3] = biological target: T1, Human CD3 on Jurkat cells; experiment: cell-based or functional assay
[4] = biological target: T1, Human CD3 on Jurkat cells; experiment: flow cytometry on Jurkat cells; remark: listed apart in the source
[5] = biological target: T2, Monkey CD3 on cynomolgus HSC-F cells; experiment: flow cytometry on HSC-F cells; remark: listed apart in the source
[6] = biological target: T3, Human CD3εγ recombinant antigen (acrobiosystems, Cat. No. CDG-H52W5) (human, UniProt P07766 23-126; P09693 23-116); experiment: SPR chip (Carterra), antibody captured, antigen in flow;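 further: antibodies captured through anti-human IgG Fc at roughly 1000 RU, kinetic constants fitted with a 1:1 binding model in Carterra analysis software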
T3 construct: Bought recombinant protein

[7] = biological target: T4, human MSLN-his (Kaika Biotech, MSL-HM18D) (human, UniProt Q13421 296-580, limits assumed); experiment: ELISA, coated huMSLN-his
T4 construct: Bought protein; also called huMSLN-his; huMSLN; not shown: his tag
T4 sequence (Q13421 other isoform, or with tags, fused parts or gaps limits assumed): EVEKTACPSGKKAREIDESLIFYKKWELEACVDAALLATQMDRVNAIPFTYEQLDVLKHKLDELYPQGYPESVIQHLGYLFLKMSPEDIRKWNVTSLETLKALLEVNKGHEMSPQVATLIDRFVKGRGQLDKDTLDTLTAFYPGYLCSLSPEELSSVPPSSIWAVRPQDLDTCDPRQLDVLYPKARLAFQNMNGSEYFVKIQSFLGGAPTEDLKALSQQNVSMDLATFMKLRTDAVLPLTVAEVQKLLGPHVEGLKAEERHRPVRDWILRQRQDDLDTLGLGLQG

[8] = biological target: T5, cynoMSLN-Fc (Kaika Biotech, MSL-CM280) (cyno); experiment: SPR chip (Carterra), 3C6 captured by anti-DYKDDDDK, cynoMSLN-Fc in flow
T5 construct: Bought protein

[9] = biological target: T6, Human MSLN on MC38/MSLN stably transfected cells (Example 5) (human, UniProt Q13421 296-598); experiment: flow cytometry on MC38/MSLN cells
T6 construct: whole, on cells; also called MC38/MSLN cells; huMSLN
T6 sequence (Q13421 other isoform, or with tags, fused parts or gaps limits assumed): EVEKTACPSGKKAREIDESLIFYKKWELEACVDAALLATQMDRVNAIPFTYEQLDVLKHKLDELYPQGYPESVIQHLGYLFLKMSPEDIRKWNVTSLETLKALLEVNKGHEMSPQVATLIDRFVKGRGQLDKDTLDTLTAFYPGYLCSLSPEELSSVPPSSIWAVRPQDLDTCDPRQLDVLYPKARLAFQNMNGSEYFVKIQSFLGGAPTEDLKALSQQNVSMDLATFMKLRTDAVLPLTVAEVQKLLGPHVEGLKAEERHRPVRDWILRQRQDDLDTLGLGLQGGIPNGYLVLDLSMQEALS

[10] = biological target: T7, huMSLN-Fc (Kaika Biotech, MSL-HM280) (human, UniProt Q13421 296-580, limits assumed); experiment: SPR chip (Carterra), 3C6 captured by anti-DYKDDDDK, huMSLN-Fc in flow
T7 construct: Bought protein; also called huMSLN-hFc; hFc-tagged human MSLN recombinant protein; not shown: Fc (hFc) tag

[11] = biological target: T8, mouse MSLN-his (Kaika Biotech, MSL-MM180) (mouse, UniProt Q61468 298-600, limits assumed); experiment: ELISA, coated muMSLN-his
T8 construct: Bought protein; also called muMSLN-his; muMSLN; not shown: his tag
T8 sequence (looked up): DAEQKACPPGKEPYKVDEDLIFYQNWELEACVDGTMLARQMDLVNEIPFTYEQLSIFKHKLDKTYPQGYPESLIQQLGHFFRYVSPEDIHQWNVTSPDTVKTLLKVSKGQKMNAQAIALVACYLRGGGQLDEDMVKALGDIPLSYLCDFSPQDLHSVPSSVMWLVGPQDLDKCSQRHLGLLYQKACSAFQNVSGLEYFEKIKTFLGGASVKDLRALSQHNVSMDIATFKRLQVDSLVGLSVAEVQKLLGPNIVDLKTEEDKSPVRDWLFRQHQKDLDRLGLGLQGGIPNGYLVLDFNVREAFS

[12] = biological target: T9, monkey MSLN-his (Kaika Biotech, MSL-CM180) (monkey (cyno)); experiment: ELISA, coated cynoMSLN-his
T9 construct: Bought protein; also called cynoMSLN-his; cynoMSLN

Binder	EC50 [4] [pM]	EC50 [5] [pM]	Kd [6] [pM]	koff [6] [s⁻¹]	kon [6] [M⁻¹ s⁻¹]	also measured
B1	–	–	–	–	–	EC50 [1]: 73.6 pM; binding result [2]: no binding (tested: 2 µg/ml starting concentration)
B2	–	–	–	–	–	EC50 [1]: 222 pM; EC50 (nM), activation of Jurkat-TIGIT-luc cells with MC38/MSLN tumor cells [3]: 0.036 nM; EC50 (nM), activation of T cell activation signaling pathway, Jurkat-TIGIT-luc cells without tumor cells [3]: 0.21 nM; EC50 [2]: 280 pM
B3	198	109	1690	0.0109	6.46e+06	–
B4	3410	407	1280	0.00055	431000	–
B5	752	130	1520	0.00513	3.38e+06	–
B6	1610	141	3330	0.00334	1e+06	–
B7	176	161	2330	0.00268	1.15e+06	–
B8	338	148	2050	0.00205	999000	–
B9	415	156	1870	0.00344	1.85e+06	–
B10	10200	8240	13300	0.0016	120000	–
B11	211	398	5310	0.0043	810000	–
B12	760	498	29700	0.0305	1.02e+06	–
B13	431	143	1150	0.00137	1.19e+06	–
B14	–	–	–	–	–	EC50 [7]: 463 pM; Kd [8]: 1040 pM; koff [8]: 4.69e-05 s⁻¹; kon [8]: 45300 M⁻¹ s⁻¹; EC50 [9]: 11800 pM; Kd [10]: 5660 pM; koff [10]: 0.000304 s⁻¹; kon [10]: 53600 M⁻¹ s⁻¹; EC50 [11]: 28600 pM; EC50 [12]: 788 pM

Source: patent publication US20250059278A1 (SICHUAN HUIYU PHARMACEUTICAL, published 2025)
